Drawing on article PMC4927390, this text covers decrease of mCherry fluorescence in cytoplasm after 3 min of 740 nm illumination for one substance.

The target of this assay is PpsR2-mVenus-CAAX (membrane-bound) (Rhodopseudomonas palustris). Put plainly: translocation assay.

“BphP1-mCherry, transiently expressed in HeLa cells (natural protein)” displayed a decrease of mCherry fluorescence in cytoplasm after 3 min of 740 nm illumination of 25%.
